Test results: article PMC10790780

Key:
[1] = biological target: T1, Rho-His6 (transcription termination factor Rho) (Acinetobacter baumannii AB5075) (UniProt A0ABX6CC36); assay: EMSA
[2] = system: Rho-His6 (transcription termination factor Rho) (Acinetobacter baumannii AB5075); assay: EMSA; settings: LightShift chemiluminescent RNA EMSA kit components, 20 uL, 1 h at room temperature; 5% acrylamide TBE gel, 0.5x TBE, 100 V 120 min at 4 C; salt and pH not …
[3] = biological target: T1, Rho-His6 (transcription termination factor Rho) (Acinetobacter baumannii AB5075); assay: competition

Substance	Kd [2]	further results
GGGCUUUGCCUGCUAGCCACAUUGCUAGCGGGUUUUAGCAGACCCUAUUUAAACAAAGACGAUAGACAGAACCUAGUUUUGUGUGUCGUGAACUCGUUCGCCCCCUUUUUCUCUAUGGUAGGGCGGAAGGGGGACACCUUCGGGUGUGCUGGUUUCUUUGUUUUCCAGUCUGCUAACCCUCUUUCGUCCUGCCAGUACUGAUC [ABUW_1645 mRNA leader]	–	Kd [1]: 0.02 µM
ABUW_1959 mRNA leader	0.029 µM	–
GGGCUUUGCCUGCUAGCCACAUUGCUAGCGGGUUUUAGCAGACCCUAUUUAAACAAAGACGAUAGACAGAACCUAGUUUUGUGUGUCGUGAACUCGUUCGCCCCCUUUUUCUCUAUGGUAGGGCGGAAGGGGGACACCUUCGGGUGUGCUGGUUUCUUUGUUUUCCAGUCUGCUAACCCUCUUUCGUCCUGCCAGUACUGAUC [ABUW_1645 mRNA leader, unlabeled competitor]	–	binding [3]: binds
ABUW_1645 mRNA leader	0.02 µM	–
